# From paper PMC5477539
# Test system: DNA polymerase III core (alpha-epsilon-theta) (Escherichia coli)
# Test: single-molecule optical tweezers; fit of exonucleolysis initiation rate vs protein concentration (two-step model)
# Settings: biotinylated oligonucleotide ligated at one end; Optical tweezers buffer, salt, pH and temperature not given in the material; constant template force (55 pN for k2)
substance,measurement,value
primer-template junction of single stretched DNA (8.1 kbp pBACgus11 construct or 38.5 kbp lambda DNA),Kd,130 nM
